The results in this text go back to US20260125454A1 (SHANGHAI JUNSHI BIOSCIENCES, published 2026).

Substitutions are numbered along the chain they refer to. Like-named read-outs stand apart in the source and are kept apart here.

Assay [1] addresses T1, Biotin-huCGRPaSA (human, not fully specified; biotin (position not given)).
T1 construct: exact construct ('aSA') not explained; also called Biotin CGRPaSA; full-length (1-37) CGRP
T1 peptide: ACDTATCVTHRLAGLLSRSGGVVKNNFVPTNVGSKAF
Kind of assay: ELISA, purified antibody; relative to reference 47-RM-20190815. As to the method: Streptavidin was diluted to […] by using PBS (Hyclone) and added into a plate at 100 μL/well. The plate was incubated in a thermostat incubator at 37° C. for 90 min and then washed. 2% BSA was added to the plate at 200 μL/well, and the plate was incubated in the thermostat incubator at 37° C. for 90 min and washed. Biotin-huCGRPaSA was diluted to 2.0 μg/mL with 2% BSA and added into the plate at 100 μL/well, and the plate was incubated in the thermostat incubator at 37° C. for 60 min. The chimeric antibodies in Table 3 and reference antibody (47-RM-20190815) were diluted to 1000 ng/ml with a diluent (2% BSA) and serially 10-fold diluted to 1 ng/mL. All the chimeric antibody solutions and the reference antibody solution were added into plates at 100 μL/well, and the plates were incubated in a thermostat incubator at 37° C. for 60 min and washed. An HRP-conjugated mouse anti-human antibody IgG4 (manufacturer: Southern Biotech, Cat. No. 9200-05; Fc specificity) was diluted 5000-fold with 2% BSA and added into the plates at 100 μL/well, and the plates were incubated in the thermostat incubator at 37° C. for 60 min and washed. 0.1 mg/mL chromogenic reagent TMB was carefully added at 100 μL/well to avoid bubbles, and the system was incubated at 37° C. for 5 min away from light for chromogenic reaction. Finally, a 2 M hydrochloric acid solution was added at 100 μL/well to stop the reaction while avoiding bubbles, and the plates were read on a microplate reader within 10 min (the detection wavelength was 450 nm; the reference wavelength was 620 nm). EC₅₀ was fit by using a four-parameter logistic regression (4PL) model.
For orientation: An ELISA detects its analyte on a solid surface through an enzyme-linked reagent.

The target of assay [2] is T1, Biotin-huCGRPaSA. Description: ELISA, transfection supernatant, biotin-CGRP on streptavidin. How it is done: Streptavidin was diluted to 0.5 μg/mL by using PBS (Hyclone) and added into a plate at 100 μL/well. The plate was incubated in a thermostat incubator at 37° C. for 90 min and then washed. 2% BSA was added to the plate at 200 μL/well, and the plate was incubated in the thermostat incubator at 37° C. for 90 min and washed. Biotin-huCGRPaSA was diluted to 2.0 μg/mL with 2% BSA and added into the plate at 100 μL/well, and the plate was incubated in the thermostat incubator at 37° C. for 60 min. The reference antibody (47-RM) was diluted to 2500 ng/ml with a diluent (2% BSA) and serially 4-fold diluted to 0.15 ng/mL, and the chimeric antibodies were diluted with a cell supernatant stock solution. All the chimeric antibody solutions and the reference antibody solution were added into plates at 80 μL/well, and the plates were incubated in a thermostat incubator at 37° C. for 60 min and washed. An HRP-conjugated mouse anti-human antibody IgG4 (manufacturer: Southern Biotech, Cat. No. 9200-05; Fc specificity) was diluted 5000-fold with 2% BSA and added into the plates at 100 μL/well, and the plates were incubated in the thermostat incubator at 37° C. for 60 min and washed. 0.1 mg/mL chromogenic reagent TMB was carefully added at 100 μL/well to avoid bubbles, and the system was incubated at 37° C. for 10 min away from light for chromogenic reaction. Finally, a 2 M hydrochloric acid solution was added at 100 μL/well to stop the reaction while avoiding bubbles, and the plates were read on a microplate reader within 10 min (the detection wavelength was 450 nm; the reference wavelength was 620 nm).

Assay [3] has as its target CGRP antigen. Description: cell-based or functional assay.
The target in assay [4] is CGRP antigen. Kind of assay: cell-based or functional assay. The source holds these as a separate data set.

B1: C125 (antibody, V domains shown)
VH: EVQLQQSGPELVKPGASVKISCKASGYTFTDYNMHWVKQSHGKSLEWIGNIYPYNGGTVYNQKFNNKATLTVHTSSSTAYMDLRSLTSDDSAVYYCAREGLGGYWGQGTTLTVSS
VL: DVVLTQSPTSLAVSLGQRATISCQASQNIDGNTYMNWYQQKPGQPPKVLIYSIFNLESGIPARFSGSGSGTHFTLTIHPVEEEDAATYYCQQSNDYPYTFGGGTKLEIK
notes: 2B8-HC1 + 2B8-LC2; chimeric, human constant regions
For B1, the “Relative activity (%)” value with Biotin-huCGRPaSA [1] is 62.9%. The molecule further displayed an OD value with Biotin-huCGRPaSA [2] of 3.08 OD. In addition, the “Relative binding activity (%) vs Ref(Teva)” value (shortened to “Relative binding activity (%)”) in the assay with CGRP antigen [3] turned out to be 76.4%.

B2: C350 (antibody, V domains shown)
VH: B1 VH with K13Q, K43E, N50Y, G57H, N65R, L70M, H73D, T74S, D89E, R98K
VL: DIVLTQSPASLAVSLGQRATISCKASQNIDFDGYAYMNWYQHKPGQPPRVLIYSVFNLESGIPARFSGSGSGTDFTLNIHPVEEEDAATYYCQQSHEVPYTFGGGTNLEIK
notes: 3H10-HC + 1F5-LC1; chimeric, human constant regions
In the case of B2, in the assay with Biotin-huCGRPaSA [1], the “Relative activity (%)” value came out at 108%. Further, in the assay with Biotin-huCGRPaSA [2], the OD value worked out at 3 OD.

B3: C258 (antibody, V domains shown)
VH: B1 VH with A24T, N50Y, Y52S, V59A, N65K, N66F, A68S, H73D, D82E, D89E
VL: B2 VL
notes: 3E5-HC + 1F5-LC1; chimeric, human constant regions
In the case of B3, in the assay with Biotin-huCGRPaSA [1], the “Relative activity (%)” value was 99.8%. The OD value with Biotin-huCGRPaSA [2] came to 3.12 OD. For the same molecule, the “Relative binding activity (%)” value in the assay with CGRP antigen [4] stood at 117%.

B4: C276 (antibody, V domains shown)
VH: B1 VH with A24T, N50Y, Y52S, V59A, N65K, N66F, A68S, H73D, D82E, D89E
VL: DIVLTQSPDSLAVSLGQRATISCKASQNIDYGGYSYMNWYQQKPGQPPKVLIYSVFNLESGIPARFSGSGSGTDFTLTIHPVEEEDAATYYCQQSNEAPYTFGGGTKLEIR
notes: 3E5-HC + 3H10-LC2; chimeric, human constant regions
Take B4: the “Relative activity (%)” value with Biotin-huCGRPaSA [1] turned out to be 84.1%. Further, the OD value with Biotin-huCGRPaSA [2] worked out at 3.01 OD.

B5: C255 (antibody, V domains shown)
VH: B1 VH with A24T, N50Y, Y52S, V59A, N65K, N66F, A68S, H73D, D82E, D89E
VL: B2 VL with F31Y, M37L, H42Q, R49K, H96N, V98F, N107K, I110V
notes: 3E5-HC + 1A2-LC2; chimeric, human constant regions
As for B5, the “Relative activity (%)” value with Biotin-huCGRPaSA [1] came out at 108%. This molecule also showed an OD value with Biotin-huCGRPaSA [2] of 3.11 OD. Besides, the “Relative binding activity (%)” value with CGRP antigen [4] was 74.9%.

B6: C347 (antibody, V domains shown)
VH: B1 VH with K13Q, K43E, N50Y, G57H, N65R, L70M, H73D, T74S, D89E, R98K
VL: B2 VL with F31Y, M37L, H42Q, R49K, H96N, V98F, N107K, I110V
notes: 3H10-HC + 1A2-LC2; chimeric, human constant regions
For B6, the “Relative activity (%)” value with Biotin-huCGRPaSA [1] was determined as 91.4%. Besides, the OD value with Biotin-huCGRPaSA [2] came out at 3.01 OD. Further, the “Relative binding activity (%)” value in the assay with CGRP antigen [4] was found to be 87.6%.

B7: C138 (antibody, V domains shown)
VH: B1 VH
VL: B4 VL
notes: 2B8-HC1 + 3H10-LC2; chimeric, human constant regions
As to B7, the “Relative activity (%)” value with Biotin-huCGRPaSA [1] turned out to be 136%. The molecule further returned an OD value with Biotin-huCGRPaSA [2] of 3.06 OD.

B8: C120 (antibody, V domains shown)
VH: B1 VH
VL: B2 VL
notes: 2B8-HC1 + 1F5-LC1; chimeric, human constant regions
As for B8, in the assay with Biotin-huCGRPaSA [1], the “Relative activity (%)” value was found to be 30.6%. In the assay with Biotin-huCGRPaSA [2], this molecule came in with an OD value of 3.09 OD. For the same molecule, the “Relative binding activity (%)” value in the assay with CGRP antigen [4] worked out at 50.3%.

B9: C131 (antibody, V domains shown)
VH: B1 VH
VL: B2 VL with F31Y, A35T, M37L, H42Q, R49K, V55I, H96N, N107K
notes: 2B8-HC1 + 3E5-LC; chimeric, human constant regions
For B9, in the assay with Biotin-huCGRPaSA [1], the “Relative activity (%)” value was 116%. In the assay with Biotin-huCGRPaSA [2], this molecule gave an OD value of 3.02 OD.

B10: C263 (antibody, V domains shown)
VH: B1 VH with A24T, N50Y, Y52S, V59A, N65K, N66F, A68S, H73D, D82E, D89E
VL: B1 VL
notes: 3E5-HC + 2B8-LC2; chimeric, human constant regions
For B10, the “Relative activity (%)” value in the assay with Biotin-huCGRPaSA [1] was found to be 111%. The molecule further yielded an OD value with Biotin-huCGRPaSA [2] of 3.02 OD.

B11: C48 (antibody, V domains shown)
VH: EVQLQQSGPEVVKPGASVRISCQASGYTFTDYNMHWVKQSHGKSLEWIGYIFPYNGVAVYNRKFRSKATLIIDKSSTTAYMELRSLTSEDSAVYYCAREGLGGYWGQGTTLTVSS
VL: B2 VL with F31Y, M37L, H42Q, R49K, H96N, V98F, N107K, I110V
notes: 1B2-HC + 1A2-LC2; chimeric, human constant regions
In the case of B11, the “Relative activity (%)” value with Biotin-huCGRPaSA [1] stood at 60.4%. In the assay with Biotin-huCGRPaSA [2], this molecule gave an OD value of 3.12 OD. Also, the “Relative binding activity (%)” value with CGRP antigen [3] is 93%.

B12: C97 (antibody, V domains shown)
VH: EVQLQQSGPELVKPGASVKISCKASGYTFTDYNMHWVKQSHGKSLEWIGYVYPYNGGSAYNQKFKSKATLTVDTSSSIAYMDLHSLTSEDSAVYYCAREGLGGYWGQGTTLAVSS
VL: B2 VL
notes: 2A2-HC + 1F5-LC1; chimeric, human constant regions
For B12, the “Relative activity (%)” value in the assay with Biotin-huCGRPaSA [1] was 41.9%. In the assay with Biotin-huCGRPaSA [2], this molecule displayed an OD value of 3.03 OD. The “Relative binding activity (%)” value with CGRP antigen [3] amounted to 98.4%.

B13: C51 (antibody, V domains shown)
VH: B11 VH
VL: B2 VL
notes: 1B2-HC + 1F5-LC1; chimeric, human constant regions
Consider B13, for which the “Relative activity (%)” value with Biotin-huCGRPaSA [1] turned out to be 56%. The same molecule registered an OD value with Biotin-huCGRPaSA [2] of 3.04 OD.

B14: C69 (antibody, V domains shown)
VH: B11 VH
VL: B4 VL
notes: 1B2-HC + 3H10-LC2; chimeric, human constant regions
Turning to B14, the “Relative activity (%)” value with Biotin-huCGRPaSA [1] came to 221%. In addition, in the assay with Biotin-huCGRPaSA [2], the OD value came out at 3.07 OD. In addition, in the assay with CGRP antigen [3], the “Relative binding activity (%)” value stood at 42.2%.

B15: C92 (antibody, V domains shown)
VH: EVQLQQSGPELVKPGASVKISCKTSGYTFIDFNMHWVKQSHGKSLEWIGYIYPYNGDVVYNQNFTNKATLTVDSSSSTAYMELRRVTSEDSAIYYCAREGLGGYWGQGTTLTVSS
VL: B4 VL
notes: 1F5-HC + 3H10-LC2; chimeric, human constant regions
Turning to B15, the “Relative activity (%)” value with Biotin-huCGRPaSA [1] stood at 68.5%. In the assay with Biotin-huCGRPaSA [2], this molecule returned an OD value of 3.09 OD. In the assay with CGRP antigen [4], the “Relative binding activity (%)” value came to 108%.

B16: C85 (antibody, V domains shown)
VH: B15 VH
VL: B2 VL with F31Y, A35T, M37L, H42Q, R49K, V55I, H96N, N107K
notes: 1F5-HC + 3E5-LC; chimeric, human constant regions
For B16, the “Relative activity (%)” value in the assay with Biotin-huCGRPaSA [1] worked out at 56.7%. This molecule displayed an OD value with Biotin-huCGRPaSA [2] of 3.11 OD. For the same molecule, the “Relative binding activity (%)” value in the assay with CGRP antigen [4] came out at 111%.
